Consider 1 protein from patent US20230201361.

The target in data set [1] is eighteen amino acid peptide containing the amino acid sequence PLGIA, covalently labeled with the same fluorophore near each end (HES structure).
The target in data set [2] is control peptide, an HES-bearing peptide of the same length, with the same labeling, that does not contain the conformation-dependent cleavage site.

B1: MMP-19 (protein)
chain: YLLLGRWRKKHLTFRILNLPSTLPPHTARAALRQAFQDWSNVAPLTFQEVQAGAADIRLSFHGRQSSYCSNTFDGPGRVLAHADIPELGSVHFDEDEFWTEGTYRGVNLRIIAAHEVGHALGLGHSRYSQALMAPVYEGYRPHFKLHPDDVAGIQALYGKKSPVIRDEEEEETELPTVPPVPTEPSPMPDPCSSELDAMMLGPRGKTYAFKGDYVWTVSDSGPGPLFRVSALWEGLPGNLDAAVYSPRTQWIHFFKGDKVWRYINFKMSPGFPKKLNRVEPNLDAALYWPLNQKVFLFKGSGYWQWDELARTDFSSYPKPIKGLFTGVPNQPSAAMSWQDGRVYFFKGKVYWRLNQQLRVEKGYPRNISHNWMHCRPRTIDTTPSGGNTTPSGTGITLDTTLSATETTFEY
Turning to B1, the fluorescence intensity result is on record as “Cleavage of the peptide gives rise to an increase in fluorescence intensity” in data set [1] and “The fluorescence of the latter does not increase upon addition of the MMP” in data set [2].
